Experimental data from patent US12416034B2, “Recombinant production of steviol glycosides” (EVOLVA SA, priority 2011, dated 2025).

Key:
Assay type in all cases: biochemical
[1] = In vitro transcribed and translated UGTs incubated with steviol, LC-MS
Procedure: EUGT11 was produced by in vitro transcription and translation, and incubated with various substrates in the RebD pathway. Similar experiments were carried out using in vitro transcribed and translated UGT91D2e. […] Compounds 1-3 were identified solely by mass and expected retention time. The numbers shown in FIG. 3 are the average peak height of the indicated steviol glycoside obtained from a LC-MS chromatogram, and, although not quantitative, can be used to compare the activity of the two enzymes. […] Both enzymes were able to convert steviol 19-O-monoglucoside (SMG) to compound 1, with EUGT11 being about ten times more efficient than UGT91D2e at converting 19-SMG to compound 1.

[2] = Enzyme kinetics with UDP-glucose as substrate
Procedure: (§1) A series of experiments were performed to determine kinetic parameters of EUGT11 and 91D2e-b. For both enzymes, 100 μM RebA, 300 μM UDP-glucose, and 10 U/mL Alkaline Phosphatase (Fermentas/Thermo Fisher, Waltham, MA) were used in the reactions. For EUGT11, the reactions were performed at 37° C. using 100 mM Tris-HCl, pH 7, and 2% enzyme. For 91D2e-b, the reactions were performed at 30° C. using 20 mM Hepes-NaOH, pH 7.6, 20% (by volume) enzyme. The initial velocities (V0) were calculated in the linear range of a product versus time plot.
(§2) Vmax and KM parameters were determined from the curve-fit Lineweaver-Burk data, calculated from the x- and y intercepts (x=0, y=1/Vmax) and (y=0, x=−1/KM). Additionally, the same parameters also were calculated by a non-linear least squares regression, using the SOLVER function in Excel. The results obtained with both methods for EUGT11 and RebA are presented in Table 12, along with all the kinetic parameters of this example. Kcat is calculated based on Vmax divided by the approximate amount of protein in the assay.
In order to investigate the influence of UDP-glucose concentration in the glycosylation reaction, as well as the affinity of EUGT11 for UDP-glucose, similar kinetics analysis were performed. EUGT11 was incubated with increasing amounts of UDP-glucose (20 μM, 50 μM, 100 μM, and 200 μM), maintaining an excess of RebA (500 μM).
(§3) In the case of UGT91D2e-b, RebA concentrations assayed were 50 μM, 100 μM, 200 μM, 300 μM, 400 μM and 500 μM. Concentration of UDP-glucose was always three times the concentration of RebA and incubation was performed at 30° C., in the reaction conditions described above for UGT91D2e-b. Additionally, kinetic parameters of UGT91D2e-b towards UDP-glucose were determined. UGT91D2e-b was incubated with increasing amounts of UDP-glucose (30 μM, 50 μM, 100 μM, and 200 μM), maintaining an excess of RebA (1500 μM). incubation was performed at 30° C., in optimal conditions for UGT91D2e-b.

[3] = Enzyme kinetics with RebA as substrate; details: Reb A
Procedure: as §1
To first investigate the linearity intervals, initial time-courses were done for each enzyme. EUGT11 was assayed at 37° C. for 48 h at initial concentrations of 100 μM RebA and 300 μM UDP-glucose. UGT91D2e-b was assayed at 37° C. for 24 h at initial concentrations of 200 μM RebA and 600 μM UDP-glucose. Based on these range-finding studies, it was determined that the initial 10 minutes in the case of EUGT11, and the initial 20 minutes in UGT91D2e-b would be in the linear range with respect to product formation, and therefore initial velocities of each reaction were calculated in those intervals. In the case of EUGT11, RebA concentrations assayed were 30 μM, 50 μM, 100 μM, 200 μM, 300 μM and 500 μM. Concentration of UDP-glucose was always three times the concentration of RebA and incubation was performed at 37° C. By plotting the calculated V0 as a function of the substrate concentrations, Michaelis-Menten curves were generated. By plotting the reciprocal of V0 and the reciprocal of [S], a Lineweaver-Burk graphic was obtained, with y=339.85x+1.8644; R^2=0.9759.
as §2, §3

B1: EUGT11: UDP glycosyl transferase from Oryza sativa (GenBank AC133334), SEQ ID NO:152 (protein, listed as Oryza sativa)
chain: MDSGYSSSYAAAAGMHVVICPWLAFGHLLPCLDLAQRLASRGHRVSFVSTPRNISRLPPVRPALAPLVAFVALPLPRVEGLPDGAESTNDVPHDRPDMVELHRRAFDGLAAPFSEFLGTACADWVIVDVFHHWAAAAALEHKVPCAMMLLGSAHMIASIADRRLERAETESPAAAGQGRPAAAPTFEVARMKLIRTKGSSGMSLAERFSLTLSRSSLVVGRSCVEFEPETVPLLSTLRGKPITFLGLMPPLHEGRREDGEDATVRWLDAQPAKSVVYVALGSEVPLGVEKVHELALGLELAGTRFLWALRKPTGVSDADLLPAGFEERTRGRGVVATRWVPQMSILAHAAVGAFLTHCGWNSTIEGLMFGHPLIMLPIFGDQGPNARLIEAKNAGLQVARNDGDGSFDREGVAAAIRAVAVEEESSKVFQAKAKKLQEIVADMACHERYIDGFIQQLRSYKD
Q: What does the source list for B1?
A: use of steviol as a substrate [1]: not able to use steviol as a substrate; Kcat ([2]; Lineweaver-Burk plot): 0.202 s⁻¹; Km ([2]; Lineweaver-Burk plot): 118 µM; Vmax ([2]; Lineweaver-Burk plot): 0.78 µM/min; Kcat ([2]; Nonlinear Least Square Fit): 0.2053 s⁻¹; Km ([2]; Nonlinear Least Square Fit): 130 µM; Vmax ([2]; Nonlinear Least Square Fit): 0.79 µM/min; Kcat ([3]; Lineweaver-Burk plot): 0.14 s⁻¹; Km ([3]; Lineweaver-Burk plot): 182 µM; Vmax ([3]; Lineweaver-Burk plot): 0.54 µM/min; Kcat ([3]; Nonlinear Least Square Fit): 0.135 s⁻¹; Km ([3]; Nonlinear Least Square Fit): 162 µM; Vmax ([3]; Nonlinear Least Square Fit): 0.52 µM/min
